In patent US20240301052A1 (LANOVA MEDICINES DEVELOPMENT, published 2024):
Where a chain is given by its changes, count along the chain named. Like-named read-outs stand apart in the source and are kept apart here.

B1: 62G10E4G8.p3.z8 hIgG1 (antibody, V domains shown)
VH: QVQLVQSGAEVKKPGASVKVSCKASGYTFPSYITHWVRQAPGQGLEWIGAIYPGNADTSYIQKFKGRVTMTADKSTSTVYMELSSLRSEDTAVYYCARGTYGTSAWFTYWGQGTLVTVSS
VL: EIVLTQSPATLSASPGERATLSCRARQNIGNNLYWYQQKPGQSPRLLIKYASQSISGIPSRFSGSGSGTDFTLTISSVQSEDFAVYFCQQSFSWPLTFGAGTKLEIK
notes: humanized hIgG1
B2: 62G10E4G8.p3.z11 hIgG1 (antibody, V domains shown)
VH: B1 VH with R38K, M70L, V79A
VL: B1 VL with A13V, V78L, A100Q
notes: humanized hIgG1
B3: RG-7599 (antibody, INN chains, looked up, V domains shown)
VH: EVQLVESGGGLVQPGGSLRLSCAASGFSFSDFAMSWVRQAPGKGLEWVATIGRVAFHTYYPDSMKGRFTISRDNSKNTLYLQMNSLRAEDTAVYYCARHRGFDVGHFDFWGQGTLVTVSS
VL: DIQMTQSPSSLSASVGDRVTITCRSSETLVHSSGNTYLEWYQQKPGKAPKLLIYRVSNRFSGVPSRFSGSGSGTDFTLTISSLQPEDFATYYCFQGSFNPLTFGQGTKVEIK
modifications: vedotin (MMAE) payload

How the values were obtained:
rat SLC34A2 [1] = target: T1, rat SLC34A2 (rat, UniProt Q9JJ09 1-695); test: FACS, HEK293/Rat SLC34A2 cells
T1 construct: whole, on cells
T1 sequence (looked up): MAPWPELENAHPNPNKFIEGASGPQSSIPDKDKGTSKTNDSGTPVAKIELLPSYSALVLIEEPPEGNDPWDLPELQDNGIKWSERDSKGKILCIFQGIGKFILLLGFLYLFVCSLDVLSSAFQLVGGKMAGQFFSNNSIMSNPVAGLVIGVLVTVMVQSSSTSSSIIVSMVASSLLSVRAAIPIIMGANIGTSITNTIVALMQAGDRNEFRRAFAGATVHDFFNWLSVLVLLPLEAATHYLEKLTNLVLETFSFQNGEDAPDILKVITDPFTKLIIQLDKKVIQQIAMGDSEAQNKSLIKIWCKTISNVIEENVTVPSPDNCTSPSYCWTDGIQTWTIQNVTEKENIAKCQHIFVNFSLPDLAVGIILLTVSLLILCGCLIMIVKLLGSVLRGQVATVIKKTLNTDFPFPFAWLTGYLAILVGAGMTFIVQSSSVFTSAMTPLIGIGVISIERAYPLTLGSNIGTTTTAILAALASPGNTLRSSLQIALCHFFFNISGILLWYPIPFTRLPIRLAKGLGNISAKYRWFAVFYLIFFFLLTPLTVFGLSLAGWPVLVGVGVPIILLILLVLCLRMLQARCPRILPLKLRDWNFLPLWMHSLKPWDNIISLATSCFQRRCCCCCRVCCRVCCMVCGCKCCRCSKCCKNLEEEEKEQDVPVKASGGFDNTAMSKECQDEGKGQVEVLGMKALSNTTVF

human SLC34A2 [2] = target: T2, human SLC34A2 (human, UniProt O95436 1-690); test: FACS, OVCAR3 cells
T2 construct: whole, on cells; also called human solute carrier 34 A2; NaPi2b
T2 sequence (looked up): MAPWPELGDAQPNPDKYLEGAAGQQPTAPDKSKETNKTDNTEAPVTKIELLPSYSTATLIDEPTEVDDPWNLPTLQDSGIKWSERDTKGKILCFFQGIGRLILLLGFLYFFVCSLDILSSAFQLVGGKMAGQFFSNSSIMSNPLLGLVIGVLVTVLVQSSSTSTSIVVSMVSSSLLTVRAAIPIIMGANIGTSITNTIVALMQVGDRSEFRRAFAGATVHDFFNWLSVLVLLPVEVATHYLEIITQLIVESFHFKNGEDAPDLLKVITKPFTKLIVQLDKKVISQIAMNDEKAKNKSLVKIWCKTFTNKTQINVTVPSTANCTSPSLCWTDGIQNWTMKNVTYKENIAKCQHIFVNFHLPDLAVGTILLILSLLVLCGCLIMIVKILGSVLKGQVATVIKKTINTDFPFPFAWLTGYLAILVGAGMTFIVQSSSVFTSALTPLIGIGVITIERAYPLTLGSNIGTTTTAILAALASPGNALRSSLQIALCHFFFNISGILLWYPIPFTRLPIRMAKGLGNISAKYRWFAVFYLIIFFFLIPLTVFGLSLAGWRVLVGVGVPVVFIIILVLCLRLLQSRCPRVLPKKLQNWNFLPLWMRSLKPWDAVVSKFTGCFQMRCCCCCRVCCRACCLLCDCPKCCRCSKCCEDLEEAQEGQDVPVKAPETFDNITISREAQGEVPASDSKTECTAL
Experimental: The binding of these humanized antibodies to OVCAR3 cells was evaluated as described above, and the results are shown in FIG. 12A-D and Tables 16A-D.

mouse SLC34A2 [3] = target: T3, mouse SLC34A2 (mouse, UniProt Q9DBP0 1-697); test: FACS, HEK293/Mouse SLC34A2 cells
T3 construct: whole, on cells
T3 sequence (looked up): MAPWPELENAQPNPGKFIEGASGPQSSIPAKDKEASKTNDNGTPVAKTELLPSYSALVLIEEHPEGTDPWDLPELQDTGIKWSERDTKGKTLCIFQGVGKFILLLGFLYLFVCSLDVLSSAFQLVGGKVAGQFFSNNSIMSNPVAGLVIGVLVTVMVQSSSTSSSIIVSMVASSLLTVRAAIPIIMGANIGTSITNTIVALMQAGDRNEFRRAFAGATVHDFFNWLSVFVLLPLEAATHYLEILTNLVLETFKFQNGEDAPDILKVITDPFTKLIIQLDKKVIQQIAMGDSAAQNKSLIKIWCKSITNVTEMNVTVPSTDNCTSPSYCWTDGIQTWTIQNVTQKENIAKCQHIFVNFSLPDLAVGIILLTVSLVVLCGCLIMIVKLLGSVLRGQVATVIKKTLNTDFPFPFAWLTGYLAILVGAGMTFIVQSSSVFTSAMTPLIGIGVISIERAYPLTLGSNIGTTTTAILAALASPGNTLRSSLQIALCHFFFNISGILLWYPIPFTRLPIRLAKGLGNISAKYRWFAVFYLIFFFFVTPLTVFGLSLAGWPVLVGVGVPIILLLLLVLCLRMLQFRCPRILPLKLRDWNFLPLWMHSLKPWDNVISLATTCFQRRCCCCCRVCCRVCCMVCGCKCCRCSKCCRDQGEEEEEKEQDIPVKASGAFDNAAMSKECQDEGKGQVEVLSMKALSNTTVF

human SLC34A2 [4] = target: T2, human SLC34A2; test: FACS, RMG-1 cells
Procedure, shortened: (§1)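 Cell-surface binding by flow cytometry: hu Abs on SLC34A2-expressing cells, 60 min at 4° C.; 2× FACS buffer wash; fluorescent-conjugated secondary 30 min at 4° C.; 2× wash, then acquisition.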

human SLC34A2 [5] = target: T2, human SLC34A2; test: FACS, HEK293/human SLC34A2 cells
Procedure, shortened: as §1

human SLC34A2 [6] = target: T2, human SLC34A2; test: FACS, OVCAR3 cells; remark: listed apart in the source
Procedure, shortened: as §1

Rhesus SLC34A2 = target: T4, Rhesus SLC34A2 (Rhesus, UniProt F7HDA3 1-690); test: FACS, HEK293/Rhesus SLC34A2 cells
T4 construct: whole, on cells
T4 sequence: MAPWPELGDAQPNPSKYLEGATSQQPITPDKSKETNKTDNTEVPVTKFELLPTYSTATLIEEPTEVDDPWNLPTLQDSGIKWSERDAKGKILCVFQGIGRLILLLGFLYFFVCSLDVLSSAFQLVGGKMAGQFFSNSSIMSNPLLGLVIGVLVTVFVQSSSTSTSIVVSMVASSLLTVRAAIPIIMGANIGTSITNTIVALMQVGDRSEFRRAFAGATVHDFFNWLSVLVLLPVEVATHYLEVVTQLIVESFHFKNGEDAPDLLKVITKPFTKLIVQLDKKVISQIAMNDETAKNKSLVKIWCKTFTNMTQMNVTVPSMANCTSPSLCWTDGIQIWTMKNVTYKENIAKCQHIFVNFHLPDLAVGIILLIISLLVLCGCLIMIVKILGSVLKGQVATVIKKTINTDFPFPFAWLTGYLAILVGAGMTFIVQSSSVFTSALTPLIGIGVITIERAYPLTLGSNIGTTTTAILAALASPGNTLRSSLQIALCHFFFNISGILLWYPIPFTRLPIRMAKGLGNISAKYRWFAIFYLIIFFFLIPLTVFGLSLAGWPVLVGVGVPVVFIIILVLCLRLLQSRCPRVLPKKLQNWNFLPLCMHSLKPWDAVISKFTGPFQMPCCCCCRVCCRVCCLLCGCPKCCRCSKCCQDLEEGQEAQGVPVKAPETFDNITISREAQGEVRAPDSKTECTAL

human SLC34A2 [7] = target: T2, human SLC34A2; test: cell-based or functional assay
human SLC34A2 [8] = target: T2, human SLC34A2; test: FACS, HEK293/human SLC34A2 cells
[9] = target: Cynomolgus SLC34A2 (Cynomolgus); test: FACS, cells expressing Cynomolgus SLC34A2
rat SLC34A2 [10] = target: T1, rat SLC34A2; test: FACS, HEK293/Rat SLC34A2 cells; remark: listed apart in the source
human SLC34A2 [11] = target: T2, human SLC34A2; test: FACS, MDAH2774 cells
mouse SLC34A2 [12] = target: T3, mouse SLC34A2; test: FACS, HEK293/Mouse SLC34A2 cells; remark: listed apart in the source
human SLC34A2 [13] = target: T2, human SLC34A2; test: cell-based or functional assay; remark: listed apart in the source

| Binder | binding result (rat SLC34A2 [1]) | EC50 (human SLC34A2 [2]) [nM] | Top (MFI) (human SLC34A2 [2]) | binding result (mouse SLC34A2 [3]) | EC50 (human SLC34A2 [4]) [nM] | Top (human SLC34A2 [4]) [MFI] | EC50 (human SLC34A2 [5]) [nM] | Top (human SLC34A2 [5]) [MFI] | EC50 (human SLC34A2 [6]) [nM] | EC50 (Rhesus SLC34A2) [nM] | Top (MFI) (Rhesus SLC34A2) | also measured |
| --- | --- | --- | --- | --- | --- | --- | --- | --- | --- | --- | --- | --- |
| B1 | binds | 8.61 | 30000 | binds | 11.1 | 10900 | 4.42 | 31500 | 8.61 | 2.5 | 12200 | – |
| B2 | binds | 4.32 | 28200 | binds | 11.4 | 11300 | 5.07 | 31900 | 4.32 | 3.4 | 14700 | ADCC reporter EC50 (human SLC34A2 [7]): 3.78 nM; ADCC reporter Top (MFI) (human SLC34A2 [7]): 116000 MFI |
| B3 | – | – | – | – | – | – | – | – | – | – | – | EC50 (human SLC34A2 [8]): 8.25 nM; EC50 [9]: 1080 nM; EC50 (rat SLC34A2 [10]): 715 nM; EC50 (human SLC34A2 [11]): 8.74 nM; EC50 (mouse SLC34A2 [12]): 412 nM; ADCC reporter EC50 (human SLC34A2 [13]): 1.31 nM; ADCC reporter Top (MFI) (human SLC34A2 [13]): 15700 MFI; ADCC-HEK293 (human SLC34A2 [13]): 2.02 nM; ADCC-OVCAR3 (human SLC34A2 [13]): 2.97 nM; Cytotoxic Effect - MDAH-2774 (human SLC34A2 [13]): 6.83 nM; Cytotoxic Effect - OVCAR3 (human SLC34A2 [13]): 0.325 nM |
